Experimental data taken from patent US11325966.

Tests used:
Experiment in all cases: cell-based or functional assay
[1] = biological target: HIV-1 envelope (Env) of pseudovirus BJOX028000.10.3 (HIV-1)
[2] = biological target: HIV-1 envelope (Env) of pseudovirus C1080.c03 (HIV-1)
[3] = biological target: HIV-1 envelope (Env) of pseudovirus 3301.v1.c24 (HIV-1)
[4] = biological target: HIV-1 envelope (Env) of pseudovirus 7030102001E5 (Rev-) (HIV-1)
[5] = biological target: HIV-1 envelope (Env) of pseudovirus 6480.v4.c25 (HIV-1)
[6] = biological target: HIV-1 envelope (Env) of pseudovirus CNE58 (HIV-1)
[7] = biological target: HIV-1 envelope (Env) of pseudovirus 3016.v5.c45 (HIV-1)
[8] = biological target: HIV-1 envelope (Env) of pseudovirus 191955_A11 (HIV-1)
[9] = biological target: HIV-1 envelope (Env) of pseudovirus ZM249M.PL1 (HIV-1)
[10] = biological target: HIV-1 envelope (Env) of pseudovirus Q461.e2 (HIV-1)
[11] = biological target: HIV-1 envelope (Env) of pseudovirus 3365.v2.c2 (HIV-1)
[12] = biological target: HIV-1 envelope (Env) of pseudovirus HIV-16845-2.22 (HIV-1)
[13] = biological target: HIV-1 envelope (Env) of pseudovirus QH0692.42 (HIV-1)
[14] = biological target: HIV-1 envelope (Env) of pseudovirus X1254_c3 (HIV-1)
[15] = biological target: HIV-1 envelope (Env) of pseudovirus T255-34 (HIV-1)
[16] = biological target: HIV-1 envelope (Env) of pseudovirus CNE30 (HIV-1)
[17] = biological target: HIV-1 envelope (Env) of pseudovirus YU2_N280Y (HIV-1) (UniProt P35961)
[18] = biological target: HIV-1 envelope (Env) of pseudovirus P1981_C5_3 (HIV-1)
[19] = biological target: HIV-1 envelope (Env) of pseudovirus R2184.c04 (HIV-1)
[20] = biological target: HIV-1 envelope (Env) of pseudovirus CAP45.2.00.G3 (HIV-1)
[21] = biological target: HIV-1 envelope (Env) of pseudovirus C4118.c09 (HIV-1)
[22] = biological target: HIV-1 envelope (Env) of pseudovirus 928-28 (HIV-1)
[23] = biological target: HIV-1 envelope (Env) of pseudovirus YU2_N160K (HIV-1) (UniProt P35961)
[24] = biological target: HIV-1 envelope (Env) of pseudovirus 3415.v1.c1 (HIV-1)
[25] = biological target: HIV-1 envelope (Env) of pseudovirus BF1266.431a (HIV-1)
[26] = biological target: HIV-1 envelope (Env) of pseudovirus BG505/T332N (HIV-1)
[27] = biological target: HIV-1 envelope (Env) of pseudovirus MS208.A1 (HIV-1)
[28] = biological target: HIV-1 envelope (Env) of pseudovirus 6244_13_B5_4576 (HIV-1)
[29] = biological target: HIV-1 envelope (Env) of pseudovirus Ce2060_G9 (HIV-1)
[30] = biological target: HIV-1 envelope (Env) of pseudovirus CNE52 (HIV-1)
[31] = biological target: HIV-1 envelope (Env) of pseudovirus YU2_N276D (HIV-1) (UniProt P35961)
[32] = biological target: HIV-1 envelope (Env) of pseudovirus CAAN5342.A2 (HIV-1)
[33] = biological target: HIV-1 envelope (Env) of pseudovirus ZM135M.PL10a (HIV-1)
[34] = biological target: HIV-1 YU2 Env N332K, on pseudovirus (HIV-1) (UniProt P35961)
[35] = biological target: HIV-1 Env of pseudovirus ZM247v1 (Rev-) (HIV-1)
[36] = biological target: BG505 (T332N) N386A (HIV-1)
BG505 (T332N) (HIV-1) = biological target: BG505 (T332N) (HIV-1)
JR-CSF (HIV-1) = JR-CSF (HIV-1) (UniProt P20871)

BG1 (antibody) was tested, and the IC50 in TZM-bl assay [1] was greater than 30 µg/mL, the IC80 in TZM-bl assay [1] was greater than 30 µg/mL and the IC50 in TZM-bl assay [2] was 2 ng/mL. The IC80 in TZM-bl assay [2] was 5 ng/mL, the IC50 in TZM-bl assay [3] was greater than 30 µg/mL and the IC80 in TZM-bl assay [3] was greater than 30 µg/mL. The IC50 in TZM-bl assay [4] was greater than 30 µg/mL, the IC80 in TZM-bl assay [4] was greater than 30 µg/mL and the IC50 in TZM-bl assay [5] was greater than 30 µg/mL. It also gave an IC80 in TZM-bl assay [5] greater than 30 µg/mL, an IC50 in TZM-bl assay [6] greater than 30 µg/mL and an IC80 in TZM-bl assay [6] greater than 30 µg/mL. The IC50 in TZM-bl assay [7] was greater than 30 µg/mL, the IC80 in TZM-bl assay [7] was greater than 30 µg/mL and the IC50 in TZM-bl assay [8] was 8 ng/mL. For the same substance, the IC80 in TZM-bl assay [8] was 0.018 µg/mL, the IC50 in TZM-bl assay [9] was 1.22 µg/mL and the IC80 in TZM-bl assay [9] was 6.79 µg/mL. The IC50 in TZM-bl assay [10] was greater than 30 µg/mL, the IC80 in TZM-bl assay [10] was greater than 30 µg/mL and the IC50 in TZM-bl assay [11] was 1.16 µg/mL. The IC80 in TZM-bl assay [11] was 4.27 µg/mL, the IC50 in TZM-bl assay [12] was greater than 30 µg/mL and the IC80 in TZM-bl assay [12] was greater than 30 µg/mL. For the same substance, the IC50 in TZM-bl assay [13] was greater than 30 µg/mL, the IC80 in TZM-bl assay [13] was greater than 30 µg/mL and the IC50 in TZM-bl assay [14] was 0.048 µg/mL. It also gave an IC80 in TZM-bl assay [14] of 0.086 µg/mL, an IC50 in TZM-bl assay [15] of 11.6 µg/mL and an IC80 in TZM-bl assay [15] greater than 30 µg/mL. It also gave an IC50 in TZM-bl assay [16] greater than 30 µg/mL, an IC80 in TZM-bl assay [16] greater than 30 µg/mL and an IC50 in TZM-bl assay [17] of 9 µg/mL. For the same substance, the IC80 in TZM-bl assay [17] was 23 µg/mL, the IC50 in TZM-bl assay [18] was greater than 30 µg/mL and the IC80 in TZM-bl assay [18] was greater than 30 µg/mL. For the same substance, the IC50 in TZM-bl assay [19] was greater than 30 µg/mL, the IC80 in TZM-bl assay [19] was greater than 30 µg/mL and the IC50 in TZM-bl assay [20] was 0.149 µg/mL. For the same substance, the IC80 in TZM-bl assay [20] was 0.383 µg/mL, the IC50 in TZM-bl assay [21] was 22.8 µg/mL and the IC80 in TZM-bl assay [21] was greater than 30 µg/mL. For the same substance, the IC50 in TZM-bl assay [22] was greater than 30 µg/mL, the IC80 in TZM-bl assay [22] was greater than 30 µg/mL and the IC50 in TZM-bl assay [23] was greater than 30 µg/mL. The IC80 in TZM-bl assay [23] was greater than 30 µg/mL, the IC50 in TZM-bl assay [24] was 14.4 µg/mL and the IC80 in TZM-bl assay [24] was greater than 30 µg/mL. For the same substance, the IC50 in TZM-bl assay [25] was greater than 30 µg/mL, the IC80 in TZM-bl assay [25] was greater than 30 µg/mL and the IC50 in TZM-bl assay [26] was 0.034 µg/mL. The IC80 in TZM-bl assay [26] was 0.125 µg/mL, the IC50 in TZM-bl assay [27] was 1.48 µg/mL and the IC80 in TZM-bl assay [27] was 6.54 µg/mL. It also gave an IC50 in TZM-bl assay [28] greater than 30 µg/mL, an IC80 in TZM-bl assay [28] greater than 30 µg/mL and an IC50 in TZM-bl assay [29] greater than 30 µg/mL. The IC80 in TZM-bl assay [29] was greater than 30 µg/mL, the IC50 in TZM-bl assay [30] was 0.975 µg/mL and the IC80 in TZM-bl assay [30] was 5.01 µg/mL. It also gave an IC50 in TZM-bl assay [31] of 18.8 µg/mL, an IC80 in TZM-bl assay [31] greater than 30 µg/mL and an IC50 in TZM-bl assay [32] greater than 30 µg/mL. It also gave an IC80 in TZM-bl assay [32] greater than 30 µg/mL, an IC50 in TZM-bl assay [33] greater than 30 µg/mL and an IC80 in TZM-bl assay [33] greater than 30 µg/mL.
In the case of BG18 IgG (354BG18) (antibody), the IC50 in TZM-bl assay [34] is reported as greater than 30 µg/mL, the IC80 in TZM-bl assay [34] is reported as greater than 30 µg/mL and the IC50 in TZM-bl assay [35] is reported as 1.45 µg/mL. The IC80 in TZM-bl assay [35] was 8.72 µg/mL.
With 354BG8 (antibody) the IC50 in TZM-bl assay [36] was 4 ng/mL, the IC50 in TZM-bl assay (BG505 (T332N) (HIV-1)) was 7 ng/mL and the IC50 in TZM-bl assay (JR-CSF (HIV-1)) was 9 ng/mL.
